Data on one molecule can be found in paper PMC8930771, “Structural basis of phosphatidylinositol 3-kinase C2α function” (Nature Structural & Molecular Biology, 2022).

Test [1] has as its target T1, PI3KC2α^ΔN+ΔPX−C2 WT (mouse PI3KC2α amino acids 377–1,400) (mouse, UniProt Q61194 377-1400).
T1 construct: Phosphatidylinositol 3-kinase type 2α (PI3KC2α), mouse, amino acids 377-1,400; lacks the disordered N-terminal region and the distal PX and C-C2 domains; Cloned into pFL10His; The purification paragraph names PI3KC2α^ΔN, ^ΔN+ΔC−C2, ^core 'and related mutants'; also called PI3KC2α^ΔN+ΔPX−C2 Wild-type (WT); source: Sf21 insect cells (baculovirus), purified (Nickel NTA, TEV cleavage, Superdex 200)
T1 sequence (looked up): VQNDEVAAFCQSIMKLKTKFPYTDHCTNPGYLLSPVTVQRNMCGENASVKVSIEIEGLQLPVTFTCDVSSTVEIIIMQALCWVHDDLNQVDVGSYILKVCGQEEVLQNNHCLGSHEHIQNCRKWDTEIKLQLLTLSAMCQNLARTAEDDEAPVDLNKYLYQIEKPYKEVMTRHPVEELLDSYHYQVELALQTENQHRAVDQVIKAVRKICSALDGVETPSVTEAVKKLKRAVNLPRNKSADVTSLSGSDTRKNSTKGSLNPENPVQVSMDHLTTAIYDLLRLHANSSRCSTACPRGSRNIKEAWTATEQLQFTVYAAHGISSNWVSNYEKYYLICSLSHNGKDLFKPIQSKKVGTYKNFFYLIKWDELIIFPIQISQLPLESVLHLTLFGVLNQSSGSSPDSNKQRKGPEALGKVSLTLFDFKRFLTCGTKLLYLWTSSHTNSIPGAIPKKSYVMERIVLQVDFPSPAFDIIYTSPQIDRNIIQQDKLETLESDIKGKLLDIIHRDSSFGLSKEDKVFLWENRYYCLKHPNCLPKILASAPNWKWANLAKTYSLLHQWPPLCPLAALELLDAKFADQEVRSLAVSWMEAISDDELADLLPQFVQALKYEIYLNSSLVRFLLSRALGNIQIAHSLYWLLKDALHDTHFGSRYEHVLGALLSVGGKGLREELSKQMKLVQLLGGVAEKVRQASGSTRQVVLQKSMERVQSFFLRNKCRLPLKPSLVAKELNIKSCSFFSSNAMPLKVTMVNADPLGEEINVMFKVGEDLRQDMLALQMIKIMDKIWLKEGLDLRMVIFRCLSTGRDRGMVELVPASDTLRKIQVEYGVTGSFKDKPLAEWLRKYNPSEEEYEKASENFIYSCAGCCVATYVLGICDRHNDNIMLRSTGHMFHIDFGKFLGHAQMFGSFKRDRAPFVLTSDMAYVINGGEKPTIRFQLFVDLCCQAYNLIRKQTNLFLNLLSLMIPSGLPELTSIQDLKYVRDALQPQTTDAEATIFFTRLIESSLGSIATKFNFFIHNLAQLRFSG
Description: pull-down; 10 μg immobilized GST fusion protein as bait, 200 μg PI3KC2α^ΔN+ΔPX−C2 WT or RBD mutant in 500 μl binding buffer (20 mM Tris, pH 7.5, 100 mM NaCl), 1 h at 4 °C, three washes; SDS-PAGE and Coomassie blue staining, quantified with ImageJ. The note with it: both partners purified.

Test [2] deals with T2, PI3KC2α^ΔN+ΔPX−C2 RBD mutant (K426A, W458A, D461A, D462A) (mouse, UniProt Q61194 377-1400, K426A | W458A | D461A | D462A).
T2 construct: Phosphatidylinositol 3-kinase type 2α (PI3KC2α), mouse, amino acids 377-1,400, with four alanine substitutions in the RBD; source: Sf21 insect cells (baculovirus), purified (Nickel NTA, TEV cleavage, Superdex 200)
T2 sequence (looked up): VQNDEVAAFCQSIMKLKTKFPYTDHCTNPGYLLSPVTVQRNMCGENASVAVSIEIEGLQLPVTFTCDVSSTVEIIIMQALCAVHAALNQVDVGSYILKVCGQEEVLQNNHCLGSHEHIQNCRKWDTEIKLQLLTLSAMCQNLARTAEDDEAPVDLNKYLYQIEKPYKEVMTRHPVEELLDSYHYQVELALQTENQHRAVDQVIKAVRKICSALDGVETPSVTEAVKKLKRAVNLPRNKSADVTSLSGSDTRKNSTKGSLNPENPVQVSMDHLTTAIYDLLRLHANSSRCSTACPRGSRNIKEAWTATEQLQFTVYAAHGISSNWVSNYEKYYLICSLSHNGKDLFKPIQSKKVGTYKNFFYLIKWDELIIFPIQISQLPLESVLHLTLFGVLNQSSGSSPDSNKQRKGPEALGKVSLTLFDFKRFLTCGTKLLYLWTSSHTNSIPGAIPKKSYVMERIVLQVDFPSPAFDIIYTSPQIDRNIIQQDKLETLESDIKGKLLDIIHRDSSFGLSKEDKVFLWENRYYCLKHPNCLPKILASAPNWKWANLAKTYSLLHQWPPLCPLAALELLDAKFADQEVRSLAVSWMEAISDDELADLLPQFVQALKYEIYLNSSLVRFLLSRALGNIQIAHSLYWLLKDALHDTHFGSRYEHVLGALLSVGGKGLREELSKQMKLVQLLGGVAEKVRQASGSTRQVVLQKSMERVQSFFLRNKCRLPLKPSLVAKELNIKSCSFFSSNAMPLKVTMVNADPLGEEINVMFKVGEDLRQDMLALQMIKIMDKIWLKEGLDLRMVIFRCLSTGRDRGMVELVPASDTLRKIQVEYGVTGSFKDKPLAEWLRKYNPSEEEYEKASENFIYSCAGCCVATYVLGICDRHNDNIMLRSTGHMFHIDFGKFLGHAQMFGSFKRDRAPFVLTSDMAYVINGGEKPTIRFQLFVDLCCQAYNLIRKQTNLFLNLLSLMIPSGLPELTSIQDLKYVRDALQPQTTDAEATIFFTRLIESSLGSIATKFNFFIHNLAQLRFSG
Described as above. The note with it: both partners purified.

B1: GST-distal C2 (PI3KC2α amino acids 1,561–1,686) (domain or fragment, mouse, UniProt Q61194 1561-1686, looked up)
chain: GAVKLSVSYRNGTLFIMVMHIKDLVTEDGADPNPYVKTYLLPDTHKTSKRKTKISRKTRNPTFNEMLVYSGYSKETLRQRELQLSVLSAESLRENFFLGGITLPLKDFNLSKETVKWYQLTAATYL
notes: PI3KC2α, mouse, C-terminal (distal) C2 domain, amino acids 1,561-1,686; also called GST-C2; GST-tagged C2; source: E. coli (pGEX-4T-1), immobilized GST fusion protein
Regarding B1, the binding result in test [1] and in test [2] was “binds” in each case.
